T1: coxsackievirus and adenovirus receptor (CAR) (UniProt P78310 20-365)
T1 sequence: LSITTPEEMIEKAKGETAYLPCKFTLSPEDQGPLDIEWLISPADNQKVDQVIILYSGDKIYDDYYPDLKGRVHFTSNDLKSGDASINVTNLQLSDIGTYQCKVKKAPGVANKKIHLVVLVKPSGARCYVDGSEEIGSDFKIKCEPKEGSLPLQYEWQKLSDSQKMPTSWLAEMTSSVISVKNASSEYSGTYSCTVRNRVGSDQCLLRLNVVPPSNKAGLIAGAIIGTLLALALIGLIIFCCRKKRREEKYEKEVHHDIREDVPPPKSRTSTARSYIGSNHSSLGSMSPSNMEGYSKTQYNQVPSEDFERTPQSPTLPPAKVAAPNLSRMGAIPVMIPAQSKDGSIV

B1: native Ad5 fiber knob (ligand)
chain: GAITVGNKNNDKLTLWTTPAPSPNCRLNAEKDAKLTLVLTKCGSQILATVSVLAVKGSLAPISGTVQSAHLIIRFDENGVLLNNSFLDPEYWNFRNGDLTEGTAYTNAVGFMPNLSAYPKSHGKTAKSNIVSQVYLNGDKTKPVTLTITLNGTQETGDTTPSAYSMSFSWDWSGHNYINEIFATSSYTFSYIAQE
B2: Ad5-1 mutant Ad5 fiber knob S408E (ligand)
chain: GAITVGNKNNDKLTLWTTPAPEPNCRLNAEKDAKLTLVLTKCGSQILATVSVLAVKGSLAPISGTVQSAHLIIRFDENGVLLNNSFLDPEYWNFRNGDLTEGTAYTNAVGFMPNLSAYPKSHGKTAKSNIVSQVYLNGDKTKPVTLTITLNGTQETGDTTPSAYSMSFSWDWSGHNYINEIFATSSYTFSYIAQE
B3: Ad5-2 mutant Ad5 fiber knob P409A (ligand)
chain: GAITVGNKNNDKLTLWTTPAPSANCRLNAEKDAKLTLVLTKCGSQILATVSVLAVKGSLAPISGTVQSAHLIIRFDENGVLLNNSFLDPEYWNFRNGDLTEGTAYTNAVGFMPNLSAYPKSHGKTAKSNIVSQVYLNGDKTKPVTLTITLNGTQETGDTTPSAYSMSFSWDWSGHNYINEIFATSSYTFSYIAQE
B4: Ad5-3 mutant Ad5 fiber knob RLNAEK(412-417)SLNGGG (ligand)
chain: GAITVGNKNNDKLTLWTTPAPSPNCSLNGGGDAKLTLVLTKCGSQILATVSVLAVKGSLAPISGTVQSAHLIIRFDENGVLLNNSFLDPEYWNFRNGDLTEGTAYTNAVGFMPNLSAYPKSHGKTAKSNIVSQVYLNGDKTKPVTLTITLNGTQETGDTTPSAYSMSFSWDWSGHNYINEIFATSSYTFSYIAQE
B5: Ad5-4 mutant Ad5 fiber knob K(417)G (ligand)
chain: GAITVGNKNNDKLTLWTTPAPSPNCRLNAEGDAKLTLVLTKCGSQILATVSVLAVKGSLAPISGTVQSAHLIIRFDENGVLLNNSFLDPEYWNFRNGDLTEGTAYTNAVGFMPNLSAYPKSHGKTAKSNIVSQVYLNGDKTKPVTLTITLNGTQETGDTTPSAYSMSFSWDWSGHNYINEIFATSSYTFSYIAQE
B6: Ad5-5 mutant Ad5 fiber knob K(420)A (ligand)
chain: GAITVGNKNNDKLTLWTTPAPSPNCRLNAEKDAALTLVLTKCGSQILATVSVLAVKGSLAPISGTVQSAHLIIRFDENGVLLNNSFLDPEYWNFRNGDLTEGTAYTNAVGFMPNLSAYPKSHGKTAKSNIVSQVYLNGDKTKPVTLTITLNGTQETGDTTPSAYSMSFSWDWSGHNYINEIFATSSYTFSYIAQE
B7: Ad5-8 mutant Ad5 fiber knob Y(477)A (ligand)
chain: GAITVGNKNNDKLTLWTTPAPSPNCRLNAEKDAKLTLVLTKCGSQILATVSVLAVKGSLAPISGTVQSAHLIIRFDENGVLLNNSFLDPEAWNFRNGDLTEGTAYTNAVGFMPNLSAYPKSHGKTAKSNIVSQVYLNGDKTKPVTLTITLNGTQETGDTTPSAYSMSFSWDWSGHNYINEIFATSSYTFSYIAQE
B8: Ad5-9 mutant Ad5 fiber knob EGTAY(487-491)GGGGG (ligand)
chain: GAITVGNKNNDKLTLWTTPAPSPNCRLNAEKDAKLTLVLTKCGSQILATVSVLAVKGSLAPISGTVQSAHLIIRFDENGVLLNNSFLDPEYWNFRNGDLTGGGGGTNAVGFMPNLSAYPKSHGKTAKSNIVSQVYLNGDKTKPVTLTITLNGTQETGDTTPSAYSMSFSWDWSGHNYINEIFATSSYTFSYIAQE

The molecules below were run against T1, coxsackievirus and adenovirus receptor … (assay: cell-based or functional assay).
B1 was tested, and the “Competition (from IC50 of blocking Ad5-lacZ transduction of A549 cells, β-galactosidase activity)” value (“Competition” below) was 100%. For B2, the “Competition” value was < 0.1%. For B3, the “Competition” value was < 1%. In the case of B4, the “Competition” value is reported as < 0.1%. For B5, the “Competition” value was < 0.1%. For B6, the “Competition” value was < 0.1%. For B7, the “Competition” value was < 0.1%. B8 was tested, and the “Competition” value was < 0.1%.

The molecules below were run against coxsackievirus and adenovirus receptor (CAR) (UniProt P78310) (assay: cell-based or functional assay).
With “Ad5-7 mutant Ad5 fiber knob, deletion DPEY(474-477) (from UniProt P11818 387-581) (ligand)” the Competition (from IC50 of blocking Ad5-lacZ transduction of A549 cells, β-galactosidase activity) was < 0.1%. For “F3K (native) (from UniProt P04501 119-319) (ligand)”, the Competition (from IC50 of blocking Ad5-lacZ transduction of A549 cells, β-galactosidase activity) was < 0.1%. For “Ad5-6 mutant Ad5 fiber knob, deletion DPE(474-476) (from UniProt P11818 387-581) (ligand)”, the Competition (from IC50 of blocking Ad5-lacZ transduction of A549 cells, β-galactosidase activity) was < 20%. “Ad5-10 mutant Ad5 fiber knob, deletion TAYT(489-492) (from UniProt P11818 387-581) (ligand)” was tested, and the Competition (from IC50 of blocking Ad5-lacZ transduction of A549 cells, β-galactosidase activity) was < 0.1%.
